experiment: soluble on expression in E. coli; label from the status in PepcDB or PDB records

Sequence | soluble on expression in E. coli
MSLKRVLAVQRISRDTEASSALTRQDEALTRAIRQGTYREVGRVVDATVSGAVHLDQRPSLRRWLAEPLVHEWDVLMVTEQDRITRDDMHWWHFVDWTLKNGKDVEVLDDPTFDIQSEDGRMLAGIKAAQAAKYRKAVQAKQLDRTQFFRENRLWNGGVWPFGYRAEVFSHLGERRKRLTVDPCTSRLVREAYDRLVHGEGTVYAVARDWNLRGVPSARDHQRREQNKDLPEQEHRPEKGTRWSVTPLRNILRSPALMGVMMHRSEPVLDAEGQPVVWAEPVLTSEEFAELQEVVLTEQRTAESGPGKRWRTPLLGVVFCMCGRPMYVRHQKNHLADGTTAVLTYYQCRSVSEMNRCEAPSTWRAESLCAVVERDFLDQAGDRTEMKRTYVPGRDHTAAIAELRSALANLTVAIGTATAPAAVAVLTRQMDEHARTITRLEAEPVVHARWKEEPTGAAYREQWRAVKDWESRAALLAKAGVRFFCEGTHKSGSVHMYLPSASQRRVSGVSLSKEAVEVVGIGPLEEEARRYFTDLRRTKGMGPGFWYSREGHHHHHH | not soluble
MSLGSMGPAQFVGRQTLATTPMGDVEIGLQERNGQLEVDIIQARGLTAKPGSKTLPAAYIKAYLLENGICIAKKKTKVARKSLDPLYNQVLLFPESPQGKVLQVIVWGNYGRMERKQFMGVARVLLEELDLTTLAVGWYKLFPTSSMVDPATGPLLRQASQLSLESTVGPCGERSEGHHHHHH | soluble
GPGSMSAVASDDSAGHVVDPVQHTHRYVQEHRLNELFGHLLQLVLYHRPDDPRAFLAEEVRKIREEKVSLSLFTERDLETMFEMIDATAQRWITVAQLRNTCRNLATASSAGNVSTGGGDLTAEQEAAIAGAGDAAGRVTMDKFKEVLSSLLLTKNKWS | soluble
MIRQRRRALTPEQQQEMGQQAATRMMTYPPVVMAHTVAVFLSFDGELDTQPLIEQLWRAGKRVYLPVLHPFSAGNLLFLNYHPQSELVMNRLKIHEPKLDVRDVLPLSRLDVLITPLVAFDEYGQRLGMGGGFYDRTLQNWQHYKTQPVGYAHDCQLVEKLPVEEWDIPLPAVVTPSKVWEW | soluble
MAHHHHHHMGCSASKDTTNSKDGAASKGGKDGKTTADRKVAWERIRCAIPRDKDAESKSRRIELFKRFDTNGTGKLSFREVLDGCYSILKLDEFTTHLPGIVQRAFDKAKDLGNKVKGVGEEDLVEFLEFRLMLCYIYDIFELTVMFDTMDKDGSLLIELQEFKEALPKLKEWGVDITDATTVFNEIDTNGSGVVTFDEFSCWAVTKKLQVCGDPDGEGAAKTTADRKVAWERIRCAIPRDKDAESKSRRIELFKQFDTNGTGKLGFREVLDGCYSVLKLDEFTTHLPDIVQRAFDKAKDLGNRVKGVGEEDLVEFLEFRLMLCYIYDIFELTVMFDTMDKDGSLLLELQEFKEALPKLKEWGVDITDATTVFNEIDTNGSGVVTFDEFSCWAVTKKLQVCGDPDGEENGANEGN | soluble
MGSDKIHHHHHHMERITILHTNDLHSHFENWPRIRRYLKTTRQQVMADGATVYTFDLGDHVDRVHPVSEATNGQQNIQLMNQIGYDGVTIGNNEGLGFVRAQLDHLYDHANFPVILGNLRIPDTHELPDWAIDHRLLTTAAGTRLLVLGLTAPYHLTYPLAGWQILDVQPTLAALLHRFAGQFDVCVLLSHLGLDVDRLLAKRFPQVTVIIGSHTHHLLPHGEHDHQSLLAAAGKFGRYIGKIELSITPDHQVKSAVASVTETATLPVADGDTAEITSLQDLGESILSEQRVANLPTAMEADPTGQPRLVREGLHAIAEYAGTQAAILNAGLFLQDLPSGVVNQNQLHQLLPHNMHVMTVTLSGYDLWRLVQEFELARLFLRRFPQKGMGFRGKIFGELNYLGLAYDAVTHQVTWRGEPLSPTRQYRIAMVDHYLFIPFFPTISIVGKNQILYDDLLREVFAQYLARHYPLT | not soluble
MAAFEAHDYALAERQAQALLAHPATASGARFMLGYVYAFMDRFDEARASFQALQQQAQKSGDHTAEHRALHQVGMVERMAGNWDAARRCFLEERELLASLPEDPLAASANAYEVATVALHFGDLAGARQEYEKSLVYAQQADDQVAIACAFRGLGDLAQQEKNLLEAQQHWLRARDIFAELEDSEAVNELMTRLNGLEHHHHHH | not soluble
MTINMALHYPNYFAALVPQATAYSYYQYERNNDGTYKMIEDKNSISGKSSIRTNKIWFDSQKVKTLKNIPIWFIHSAADKVVNPKTYSLPIYKSLLDSGAKNKWFSYYDNVQGKDLKDTTYNGHWSWVYFFNNQVSSVQDVKTIKKSSKLSGFKPSNKSKGGAATAKEGKKSYNNVFDWLNDQKK | not soluble
MAHHHHHHMLVFRRNFSRFINNNTPKRGVRKVLHKNVTQYGKYTPNSNIVNQQNDNNKLVRGGGGLLSTFYESFIYGCGFFLSNRLLDQIFGPRTYDSFSNNMDYSNENSGGQAPDNYNSYPSENLNNNDPTINDNDFQQDIGLDDDTFDF | not soluble
MEDESSAKYPYRESMPRAERVSMKALQDEWRHLFITRAEGENNIHNPKIPEDTNDFDDDMPIECNESEEESITGDREVFSVHHNEEDEDQEDSSQICEESEPQELPKLCRRTDKHFKELPSGLINIIKDLSLDISGLYLPQTLLTGRIDLNDEFVASIEVEDAEKSKEILRRRRERPLALRQFSHALSRAMANLRTYHYDVTTEKIERCPMRNSCKGHLKWEQMRKYRAQCKKNFKDPSLATVEDMMSK | not soluble
KVSKGLILYPGAKVEIESYAPLARKIAESGYEVVIVKMPLNLAILGTNKAQKVMDSYNNIEHWVIGGHSLGGVAASNFARDNKLIEGVVFLASYPMGDELKELGKKVISIWGSKDGVVNFKSLVESKQKLPDDTTYVEIEGGNHAQFGDYGKQKGDNDAIISQEKQLNITANSIIKFLKNIS | not soluble
MGSSHHHHHHSSGLVPRGSHMETLCQRLNVCQDKILTHYENDSTDLRDHIDYWKHMRLECAIYYKAREMGFKHINHQVVPTLAVSKNKALQAIELQLTLETIYNSQYSNEKWTLQDVSLEVYLTAPTGCIKKHGYTVEVQFDGDICNTMHYTNWTHIYICEEASVTVVEGQVDYYGLYYVHEGIRTYFVQFKDDAEKYSKNKVWEVHAGGQVILCPTSVFS | soluble
MPDRTTDDFGPFTEQIRGTIDGMGTAEFDALPVGAIQVDGSGVIHRYNRTESRLSGRIPERVIGRNFFTEVAPCTNIPAFSGRFMDGVTSGTLDARFDFVFDFQMAPVRVQIRMQNAGVPDRYWIFVRK | soluble
MNIELLQQLCEASAVSGDEQEVRDILINTLEPCVNEITFDGLGSFVARKGNKGPKVAVVGHMDEVGFMVTHIDESGFLRFTTIGGWWNQSMLNHRVTIRTHKGVKIPGVIGSVAPHALTEKQKQQPLSFDEMFIDIGANSREEVEKRGVEIGNFISPEANFACWGEDKVVGKALDNRIGCAMMAELLQTVNNPEITLYGVGSVEEEVGLRGAQTSAEHIKPDVVIVLDTAVAGDVPGIDNIKYPLKLGQGPGLMLFDKRYFPNQKLVAALKSCAAHNDLPLQFSTMKTGATDGGRYNVMGGGRPVVALCLPTRYLHANSGMISKADYEALLTLIRGFLTTLTAEKVNAFSQFRQVD | not soluble
MNLRGILPFAHDTLRKVVRSGDYVIDATCGNGHDTLLLAELVGVNGHVLGFDIQQMAIDATKTRLENAGVASQVELVCASHALIPEYATKPVRAAIFNLGYLPGGDKEITTTADSTLESIGHLMQLLEVGGVIIIVIYHGHPAGKVEKDAVLTFCEAIPQQDFHVLSYNFINQKNDAPFVIIIEKRKPLEHHHHHH | not soluble
MLGPVLRLVVKAGKERKLRNFYPNLYRDEIAAPPEGVGVAEAVDAEGHFLAVGYYDPRSRVPFRAFRFDPGPLNRAFFQGRFARALRRRQGLGESHRLVHGEADGLPGLVVDRFGEVLVLQVRSRGMEALREVWLPALLEVVAPKGVYERSDVEARRQEGLPERVGVVYGEVPEVLEVEEDGLRFPIPLALAQKTGYYLDQRENRRLFEAMVRPGERVLDVYSYVGGFALRAARKGAYALAVDKDLEALGVLDQAALRLGLRVDIRHGEALPTLRGLEGPFHHVLLDPPTLVKRPEELPAMKRHLVDLVREALRLLAEEGFLWLSSCSYHLRLEDLLEVARRAAADLGRRLRVHRVTYQPEDHPWSLHIPESLYLKTLVLQDDPL | soluble
MFDYTDFPEQRQSKIRLILSEEGKVVCTQLSRELNVSEHTIRRDLKELAQSGACKRVYGGAVSLPPEAIDFASRATIDAAQKDRIAQAVIPLIKPNGCVFFDTGTTNLAVAKQIPAGLKFTAVCNSPIIAAELMQHQDVEVIVLGGRIQKEVGGAIGIDTLRQLEKMYFDQCLLGGCAFDANEGLTVFEYDDAEFKKCLVTRSSEVIVALTANKISALTRYRVAECDEITTLVTDDEISPASQSVLKEKNLDVIIARLEHHHHHH | soluble
MENLYKELGDQSLHKDFCQTVASTFSCSVNRNGKSSITWKQVQIWFQEKLKHQSQPKSKTLPSPPLQIHDLSNPSSYASNASNATFVGNSTFVQTRKGKASDLADLAFEAKSARDYAWYDVSSFLTYRVLRTGELEVRVRFSGFDNRHDEWVNVKTSVRERSIPVEPSECGRVNVGDLLLCFQEREDQALYCDGHVLNIKRGIHDHARCNCVFLVRYELDNTEESLGLERICRRPEE | not soluble
MKHLKFQSVFDIIGPVMIGPSSSHTAGAVRIGKVVHSIFGEPSEVTFHLYNSFAKTYQGHGTDKALVAGILGMDTDNPDIKNSLEIAHQKGIKIYWDILKDSNSPHPNTAKITVKNGDRSMSITGVSIGGGNIQVTELNGFSVSLTMNTPTLIIVHQDIPGMIAKVTDILSDFNINIAQMNVTRESAGEKAIMIIEVDSRDCQQAVKKIEAIPHLHNVNFFD | soluble
MTVEPFRNEPIETFQTEEARRAMREALRRVREEFGRHYPLYIGGEWVDTKERMVSLNPSAPSEVVGTTAKAGKAEAEAALEAAWKAFKTWKDWPQEDRSRLLLKAAALMRRRKRELEATLVYEVGKNWVEASADVAEAIDFIEYYARAALRYRYPAVEVVPYPGEDNESFYVPLGAGVVIAPWNFPVAIFTGMIVGPVAVGNTVIAKPAEDAVVVGAKVFEIFHEAGFPPGVVNFLPGVGEEVGAYLVEHPRIRFINFTGSLEVGLKIYEAAGRLAPGQTWFKRAYVETGGKDAIIVDETADFDLAAEGVVVSAYGFQGQKCSAASRLILTQGAYEPVLERVLKRAERLSVGPAEENPDLGPVVSAEQERKVLSYIEIGKNEGQLVLGGKRLEGEGYFIAPTVFTEVPPKARIAQEEIFGPVLSVIRVKDFAEALEVANDTPYGLTGGVYSRKREHLEWARREFHVGNLYFNRKITGALVGVQPFGGFKLSGTNAKTGALDYLRLFLEMKAVAERF | soluble
MMNDGKQQSTFLFHDYETFGTHPALDRPAQFAAIRTDSEFNVIGEPEVFYCKPADDYLPQPGAVLITGITPQEARAKGENEAAFAARIHSLFTVPKTCILGYNNVRFDDEVTRNIFYRNFYDPYAWSWQHDNSRWDLLDVMRACYALRPEGINWPENDDGLPSFRLEHLTKANGIEHSNAHDAMADVYATIAMAKLVKTRQPRLFDYLFTHRNKHKLMALIDVPQMKPLVHVSGMFGAWRGNTSWVAPLAWHPENRNAVIMVDLAGDISPLLELDSDTLRERLYTAKTDLGDNAAVPVKLVHINKCPVLAQANTLRPEDADRLGINRQHCLDNLKILRENPQVREKVVAIFAEAEPFTPSDNVDAQLYNGFFSDADRAAMKIVLETEPRNLPALDITFVDKRIEKLLFNYRARNFPGTLDYAEQQRWLEHRRQVFTPEFLQGYADELQMLVQQYADDKEKVALLKALWQYADEIVEHHHHHH | soluble
